Measurements from publication PMC2536759 (Cancer research, 2008).
Where two headings read alike, the source gives them in different places.

Legend:
His-caspase-8(184-384) [1] = target: T1, His-caspase-8(184-384) (UniProt Q14790 184-384); test: pull-down
His-caspase-8(184-384) [2] = target: T1, His-caspase-8(184-384); test: pull-down; remark: listed apart in the source

T1 sequence (Q14790 184-384): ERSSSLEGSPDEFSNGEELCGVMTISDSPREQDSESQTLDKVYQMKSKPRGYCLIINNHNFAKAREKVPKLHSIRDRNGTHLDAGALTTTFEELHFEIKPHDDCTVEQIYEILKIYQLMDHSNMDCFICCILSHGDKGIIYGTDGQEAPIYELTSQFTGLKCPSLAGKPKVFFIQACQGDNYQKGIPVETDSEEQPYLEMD

binding result (His-caspase-8(184-384) [1]) | binding result (His-caspase-8(184-384) [2]) | Binder
binds | – | CQCRRKNYGQLDIFPARDTY [synthetic MUC1-CD(1-20) peptide]
– | binds | CQCRRKNYGQLDIFPARDTY (domain or fragment, human) [GST-MUC1-CD(1-20)]
